Experimental data from the supplement of paper PMC12764529.

Test: folding stability dG unfold (combined trypsin and chymotrypsin); higher = more stable
Protocol: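 Folding stability of de novo designed mini-proteins (<80 aa, no Cys; designed by TrROS, TrMRF, ProteinMPNN and the joint model) was measured by cDNA display proteolysis with trypsin and chymotrypsin. Each protease was used at 11 concentrations in a threefold dilution series plus a no-protease condition. K50 was inferred by Bayesian fitting of sequencing counts, and dG unfold was derived against a sequence-predicted unfolded-state K50 (Tsuboyama et al. method). Sequences shown include variable-length N-terminal GS-type padding (SAGGSAGG...) inside a display construct carrying a PA tag. Rows were kept only if the AF2 dimer inter-PAE was >15, to exclude likely homo-oligomers.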

SAGGSAGGSVKELAKKAGIKDIDVEPHPNDGWVEIKITMKNPKNGKKREGNILIRDPKDGEPLSAGGSAGGS [r12_133_TrROS]
folding stability dG unfold: < -1 kcal/mol

SAGGSPKIQIDQYNPNDYYVRIEYPGNGNTHEIPFRGSKGELAKKLEDEAEEHNMPIDVEIYPPDDSAGGSA [r2_161_TrROS]
folding stability dG unfold: < -1 kcal/mol

SAGGSAGGSAGEPVKIPITIKMRDNGKPREQPFKVEVEPNPDGNTQHKLNMPEGNITEIESAGGSAGGSAGG [r11_816_TrROS]
folding stability dG unfold: < -1 kcal/mol

SAMSPELEELLAQLKAAAEATTDVSVFATDAAGNLRSIGPVTVTGPATSLAELRPELAARPVARVELVGSAG [r14_318_JUSTAS]
folding stability dG unfold: < -1 kcal/mol

SAGMPRLVTVEMVVLRVVPVYDPEGKPVREEPREERRTRTAPLAEAQAEIDALPPDEEVTEILRVEPESAGG [r19_114_JUSTAS]
folding stability dG unfold: < -1 kcal/mol

SAGGSAGGSAGGSPAFVAPSPDAYLSADPVTGEWEPVPADHVVLSVDPSNGRVTISDPLSAGGSAGGSAGGS [r4_127_TrMRF]
folding stability dG unfold: < -1 kcal/mol

SAGGSAGGSMKVELIRTEEGKVVATEFFPVPLLLPGGVPALLEGSRTIKTIPVKDPEKAKELLSAGGSAGGS [r12_915_JUSTAS]
folding stability dG unfold: < -1 kcal/mol

SAGGSAGGSANPRTITVQYPVDPNGKPLPAEELADELQNEPFKVTDPQWNPEDGYVEDTIEVSAGGSAGGSA [r18_466_TrROS]
folding stability dG unfold: < -1 kcal/mol

SAGGSAGGSAGSMTVTVLEVVPGVPEVVLRRGDTEIRVPASRYTLERDADTTTLVVPEAASAGGSAGGSAGG [r17_403_JUSTAS]
folding stability dG unfold: < -1 kcal/mol

SAMDAKELAEEIADEFAPKFPNIKPKKVTVEPTGDHYEGNIEWEMPNGRPMRVEVTVEKDGNIEDIEFHSAG [r14_719_TrROS]
folding stability dG unfold: < -1 kcal/mol

SAGGSAGGSAIGLKDAVPGIENVAKALGAKAKAELKVLPDGKPYLVAKLYKDGKPLGELKVDSAGGSAGGSA [r18_369_TrMRF]
folding stability dG unfold: < -1 kcal/mol

SAGGGMKKYTESTVPLPPGRPDVVERLRAEYPNLEVEREGPADTGTLPTTVKVPAPDGSPLASIELGSAGGS [r8_267_JUSTAS]
folding stability dG unfold: < -1 kcal/mol

SAGGSKDKKMPPEQAKQVQVRVEIPIRVYRPGDGGEPHDFPIEIWGPMKSPEEADKEVNDAIDEFFSAGGSA [r2_244_TrROS]
folding stability dG unfold: < -1 kcal/mol

SAGGSAGGSVVPIEYDEDGMLKIEHRNNDKKREHTIPADDADEMPPDFLKDLPPDKIDEITPYSAGGSAGGS [r12_793_TrROS]
folding stability dG unfold: < -1 kcal/mol

SAGGMRVDYKSGKVIPEKTITIERTFSPEVVKTEEDAIELAKQEAEEAGLKDIDLKVELEGDKITVVGSAGG [r13_130_JUSTAS]
folding stability dG unfold: < -1 kcal/mol

SAGGSAGGSAGMKKLVKITARVPDEKGNPILVEYEEEVDLKPSDSLPVPEGVLEEIEILESAGGSAGGSAGG [r11_664_JUSTAS]
folding stability dG unfold: < -1 kcal/mol

SAGGSAGGSMVEEFETTEFSPPEPLVRVERLKKEIFTFPENSLSYKVTPVEERLVTPEEVAAESAGGSAGGS [r12_374_JUSTAS]
folding stability dG unfold: < -1 kcal/mol

SAGGSAGGSAYFVRIDNGPTIPIPGMSPDEAKEQLKEYLPPPNKENLKITDVYSPDNGKPLSAGGSAGGSAG [r3_340_TrROS]
folding stability dG unfold: < -1 kcal/mol

SAGGSAGGSAGSPAAERIAKYMEKQGGDNIDIEPVGPRPGYVRIKMKNNRPITIPLKEGDSAGGSAGGSAGG [r11_765_TrROS]
folding stability dG unfold: < -1 kcal/mol

SAGASLAPGESAAFTVTTTTTTTESLPLPDGTTVTTTSTTTTTTAHTVTFPAVPVVTMPPDATDPAVRASAG [r5_770_JUSTAS]
folding stability dG unfold: < -1 kcal/mol

SAGGKTVEIPIPGPLTIETAKDLASKLAEEGHEDVPIKITMWHWKREPNGKPERHRHTHTYKLKVPKSAGGS [r16_44_TrROS]
folding stability dG unfold: < -1 kcal/mol

SAGGSAGGSYKLGSKLIKEVTSEATPGPSTLETITLEDKTYPITLVGDSLNISPELKKAIELNSAGGSAGGS [r20_92_JUSTAS]
folding stability dG unfold: < -1 kcal/mol

SIEITFRHDNYRVPVKIDPDDPKIKIEVYPDPENGEMQPLTEEDMENFAQEIADELREQRKQQRKEGKPPSA [r9_368_TrROS]
folding stability dG unfold: < -1 kcal/mol

SPTLPFPFPDGHPYMIHLNPEKNEIHIHNPESGRPYRIKVPGGKERRIPAGADSLDELKDLPPLKIEPMPSA [r9_205_TrROS]
folding stability dG unfold: < -1 kcal/mol

SAGGSAGGQKIKIDDVQKNPGNGNYYVRIRPPGKPYEYQFPPGDSADDIADELELNGIDDIEVYSAGGSAGG [r6_83_TrROS]
folding stability dG unfold: < -1 kcal/mol

SASSTLTFTLPRYTVNKVYDKEGKPVPVEITPVPTLEVTATTLPDGTVVVTIGDETRTYPPGVSPEELLSAG [r14_909_JUSTAS]
folding stability dG unfold: < -1 kcal/mol

SAGGPVYFRIKVEQRRPDPENGEPERREQTVSIPFEYDPDNGMPADEFAEELAKTLPPGIREVEIEPFSAGG [r13_335_TrROS]
folding stability dG unfold: < -1 kcal/mol

SAGFEKIAEKLGVKPENLEIKDIEDKPVTVPDPKTGKPKERLVPVLYLEFYDPEVGKKVDAEIPLAEVASAG [r5_517_TrMRF]
folding stability dG unfold: < -1 kcal/mol

SAGGGSSMPRRRALPDGTALETTLGDSVATVRATRYVGDRPLETAERVLPDVPPDVDAEVDFDLPPGSAGGS [r8_155_JUSTAS]
folding stability dG unfold: < -1 kcal/mol

SAGGSAGGSAGGMTKTYVTPVSPDVSEEEIKEKLAPEVSSVEVERDEESGTVTITTTLDSAGGSAGGSAGGS [r10_1007_JUSTAS]
folding stability dG unfold: < -1 kcal/mol

SAGGSAGGSAPEFVVEGSEEEAEAVFERIKAERPEEFEATDISTVSAVPPVPRYTPEGVLVSAGGSAGGSAG [r3_89_JUSTAS]
folding stability dG unfold: < -1 kcal/mol

SAGGSAGGRIRDPDGNPFKIKKVEPQPSPNGQPMIKFRYPDNGKEHTIPRDNLPPWLPDNAKPVSAGGSAGG [r6_371_TrROS]
folding stability dG unfold: < -1 kcal/mol

SAGGSAGGSAMSVSVSSPENAEKLAKEIKEKNPNEIPKITKGSGSNSYTLTLPSGKNIKVSSSAGGSAGGSA [r18_154_JUSTAS]
folding stability dG unfold: < -1 kcal/mol

SAGGSAGGSAKIKLENPDNMPPEELADTIAEEAREQHPDDKNIEIPFQFPNGNPWRITVDVPSAGGSAGGSA [r18_449_TrROS]
folding stability dG unfold: < -1 kcal/mol

SAGKERTWRIYVPKNMPPGRPFEGELELNPNGERDVRISWPGGKTRKIKSPDDIKELAKSGYPIMIEPVSAG [r5_42_TrROS]
folding stability dG unfold: < -1 kcal/mol

SAGGSAGGSAEPDPSSPEPYEVLEVVPRTIVSRVEQPGNPQLLRQTVDVVIIKNPSNGLLDSAGGSAGGSAG [r3_391_JUSTAS]
folding stability dG unfold: < -1 kcal/mol

SAGGSAGGSAGKYISVDELRKNGDPDEAERVVKKIMEKFPGPKIKPIEWDKDGNHMFKIKSAGGSAGGSAGG [r11_365_TrROS]
folding stability dG unfold: < -1 kcal/mol

SAGGSAGGSAGEITIRMPMPDPDGGRRRIQFTIEKIKLPPGQKIKIVSVGPNGSFTIKPKSAGGSAGGSAGG [r11_733_TrROS]
folding stability dG unfold: < -1 kcal/mol

SAGGNAEEIRDITRDIAEKHGGEVKDVEVEPEPNGRKELTFRMKEDPNTRIKITVDNNEIKITSIQPSAGGS [r8_432_TrROS]
folding stability dG unfold: < -1 kcal/mol

SAGGSAGGSMPYEVTITDPNSDRTRTRKVSGDSPEISEAVPPSHTVTLTFGGTKTTLPVPALSSAGGSAGGS [r20_36_JUSTAS]
folding stability dG unfold: < -1 kcal/mol

SAGGSAGGSPSITIEKDKEKPVYKVTVYTPNGEKKVFENPEGKKVTTDSNGGEIYIDDVKINVSAGGSAGGS [r12_346_TrMRF]
folding stability dG unfold: < -1 kcal/mol

SAGMIVKTVTVSPEVPPEEVAERLKRENPWIKEVKPEKVTSVTVPNPGKTLLTVTITIELDDVPEEVLKSAG [r5_326_JUSTAS]
folding stability dG unfold: < -1 kcal/mol

SAGGSAMIEVETRPLPTPRELVTVKFDSEELLPEVIEKLPGVEEVEVSESKGDGKPYYTATFVIPRSAGGSA [r15_344_JUSTAS]
folding stability dG unfold: < -1 kcal/mol

SAGGPAEFPEGPGVVVGYTYPPDGKPAKWAIPFPDATPEEARERLAKFAEALPIPGAKVVIDDIKPGPSAGG [r13_29_TrMRF]
folding stability dG unfold: < -1 kcal/mol

SAGGSAGGSSMPVLPVRTEEFPHPDSVYTVTTTRYPPTGATVTVLSTRFPGPPEVVTSTTVTPSAGGSAGGS [r12_14_JUSTAS]
folding stability dG unfold: < -1 kcal/mol

SAGGSAMVIEVEEEALSEEEAEEIKEEKLKEAKEKLPGEEPVELDIKVTVTVKEPEEKPYKKNILKSAGGSA [r15_663_JUSTAS]
folding stability dG unfold: < -1 kcal/mol

SAGGSAGGSAGGSVTVSLSELKKILKEKGNPGTVEEILEDPNVSVSKDPNSSNEIVTIPGSAGGSAGGSAGG [r7_180_JUSTAS]
folding stability dG unfold: < -1 kcal/mol

SAGGSAGGSAGGSNIKELAKELWDKNPGPRPIRFKGNGYKIRFQMPPEGRLRPVEIEKNSAGGSAGGSAGGS [r4_438_TrROS]
folding stability dG unfold: < -1 kcal/mol

SAGGSAGGSTIPIRDPNREIEIVKHPDNMYRIEIEPNGGKREIILPPEAMQQKPITIEELIDQSAGGSAGGS [r20_90_TrROS]
folding stability dG unfold: < -1 kcal/mol

SAGGSAGGSAGGSTKTIMLDSPEKVEELVEEAMEKGDPITIEYHDPGEGKPFEFKFPVKSAGGSAGGSAGGS [r4_188_TrROS]
folding stability dG unfold: < -1 kcal/mol

SAGGSAGGSAGGELVLPELNKPLNVEKEEVVVEGGEEVVKIKATGSGKPFEYVVPKGLGSAGGSAGGSAGGS [r10_517_JUSTAS]
folding stability dG unfold: < -1 kcal/mol

SAGGFKPRTINIPAKPGALRNILNDLREKSPNYMVHVTNPDKGKPRHWPLDDLKDMPGPFEFRVMKMPKSAG [r5_437_TrROS]
folding stability dG unfold: < -1 kcal/mol

SAGMKITFPDGFKEIEVYEDPNYPYIEIPLPGGSIRYDLKDGPIEIEPPGDNRPIRFPIPPGDTITLPSAGG [r19_138_TrROS]
folding stability dG unfold: < -1 kcal/mol

SPNVRPYNFKIRDPNKEIEVPVWQPPDGPPMVNIKFKDPGKEVEIPFPMDDPEELLEDFAPDGYKIELTWSA [r9_384_TrROS]
folding stability dG unfold: < -1 kcal/mol

SAGGSAGGSAGGLKIPKGYPWKLSHNNGKEREFKFDSLDDIKEELNVPIPPGRNIQIEPYSAGGSAGGSAGG [r7_223_TrROS]
folding stability dG unfold: < -1 kcal/mol

SAGGSATIKIPPGMDMEIDDVELNPDDKTVEVEITFGDGPMKARITPNGQKEIEMPNGQPFTIPIDSAGGSA [r15_111_TrROS]
folding stability dG unfold: < -1 kcal/mol

SAGGMKTIKRKSKFIKPGKGLSIDRTTELLPGGEVLEPLTFKNPKNGEKIKSFTIRIDPNGNETVENSAGGS [r16_239_JUSTAS]
folding stability dG unfold: < -1 kcal/mol
